Test results reported in publication PMC11532494 (Nature Communications, 2024).
Where “and” joins values, the source holds several entries; their conditions need not be identical. Equal values may be shown once. Read-outs that look alike come from different tables or passages of the source. No end group written: not given here. *: point of attachment. AMC = Cc1cc(=O)oc2cc(N*)ccc12

Legend:
[1] = tested on: VsHdaH (1b); assay type: biochemical, Vibrio sp.; conditions: for RFU means, VsHdaH (1b) / RFU*2 means, VsHdaH (1b): means of two measurements; for [AMC] (nM), VsHdaH (1b), means / [AMC] (nM), VsHdaH (1b): substrate screening; for [AMC] (nM), VsHdaH (1b), means: mean of two measurements
[2] = molecular target: PsApaH (4) (Pseudomonas sp. M30-35, UniProt A0A1Y0KY79); assay type: biochemical; conditions: for RFU means, PsApaH (4) / RFU*2 means, PsApaH (4): means of two measurements; for [AMC] (nM), PsApaH (4), means / [AMC] (nM), PsApaH (4): substrate screening; for [AMC] (nM), PsApaH (4), means: mean of two measurements
Experimental: (§1) Experiments with SIRT2 and SIRT5 were supplemented with NAD^+ (500 µM). Thereafter, a solution of trypsin (25 µL, 5.0 mg/mL; final concentration of 2.5 mg/mL) was added, and the development of the assay was allowed to proceed for 90 min at room temperature before fluorescence analysis. […] To this end, a single category is given to all conversions >48% on the heatmap. […] For the H4-derived peptide LGKbio no positive control was available.

[3] = tested on: VcHdaH (5b); assay type: biochemical, Vibrio cholerae; conditions: for RFU means, VcHdaH (5b) / RFU*2 means, VcHdaH (5b): means of two measurements; for [AMC] (nM), VcHdaH (5b), means: substrate screening, mean of two measurements
[4] = tested on: Controls; assay type: biochemical
[5] = molecular target: T1, BsAcuC (2c) (Bacillus subtilis, UniProt P39067); experiment: Substrate screening assay (acyl-peptide-AMC); assay type: biochemical; conditions: for RFU means, BsAcuC (2c) / RFU*2 means, BsAcuC (2c): means of two measurements; for [AMC] (nM), BsAcuC (2c), means: substrate screening, mean of two measurements; for RFU*2, BsAcuC (2c): two measurements, single values
T1 construct: made in house; host or cells: E. coli BL21 (DE3)
T1 sequence (P39067 1-387): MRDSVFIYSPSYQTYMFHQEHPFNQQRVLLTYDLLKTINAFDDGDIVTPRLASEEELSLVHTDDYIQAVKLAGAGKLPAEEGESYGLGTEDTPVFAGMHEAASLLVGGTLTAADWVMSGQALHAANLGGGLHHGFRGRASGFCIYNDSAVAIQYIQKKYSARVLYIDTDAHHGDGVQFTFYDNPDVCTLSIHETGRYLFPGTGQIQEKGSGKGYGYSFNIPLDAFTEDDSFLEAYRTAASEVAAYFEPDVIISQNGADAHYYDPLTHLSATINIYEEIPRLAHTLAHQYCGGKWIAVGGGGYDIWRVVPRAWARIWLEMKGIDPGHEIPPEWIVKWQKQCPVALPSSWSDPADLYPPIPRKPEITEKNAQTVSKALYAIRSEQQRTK
Experimental: as §1

[6] = molecular target: LcApaH (3) (Legionella cherrii, UniProt A0A0W0SGS1); assay type: biochemical
[7] = molecular target: RwDmhA (1b) (Rhizorhabdus wittichii, UniProt A0A067XIQ6); assay type: biochemical
[8] = molecular target: LpApaH (3) (Legionella pneumophila, UniProt A0A2S6EWV0); assay type: biochemical
[9] = tested on: Controls; assay type: biochemical; remark: listed apart in the source
[10] = tested on: RsPrpH (1b); experiment: Substrate screening assay (acyl-peptide-AMC); assay type: biochemical, Rhizorhabdus sp.
[11] = molecular target: KpHdaH (1b) (Klebsiella pneumoniae, UniProt A0A377Z5F6); assay type: biochemical; conditions: for RFU means, KpHdaH (1b) / RFU*2 means, KpHdaH (1b): means of two measurements; for [AMC] (nM), KpHdaH (1b), means / [AMC] (nM), KpHdaH (1b): substrate screening; for [AMC] (nM), KpHdaH (1b), means: mean of two measurements
[12] = substrate screening, mean of two measurements
[13] = substrate screening, measurement 1 of two
[14] = substrate screening, measurement 2 of two
[15] = two measurements, single values

## QPKKmyr (QPKK-{AMC}; not fully specified (residue 4); printed as QPKKmyr; also: myristoyl-lysine (which Lys not given here); UniProt P04637 317-320, looked up, fragment)
[1]
  RFU means, VsHdaH (1b): -206 RFU
  RFU*2 means, VsHdaH (1b): -412 RFU*2
  [AMC] (nM), VsHdaH (1b), means: -201.17 nM
[1]; measurement 1 of two
  [AMC] (nM), VsHdaH (1b): 172.85 nM
[1]; measurement 2 of two
  [AMC] (nM), VsHdaH (1b): -575.20 nM
[2]
  RFU means, PsApaH (4): 76.5 RFU
  RFU*2 means, PsApaH (4): 153 RFU*2
  [AMC] (nM), PsApaH (4), means: 74.71 nM
[2]; measurement 1 of two
  [AMC] (nM), PsApaH (4): 39.06 nM
[2]; measurement 2 of two
  [AMC] (nM), PsApaH (4): 110.35 nM
[3]
  RFU means, VcHdaH (5b): -187.5 RFU
  RFU*2 means, VcHdaH (5b): -375 RFU*2
  [AMC] (nM), VcHdaH (5b), means: -183.11 nM
[4]
  RFU means, controls: 6774 RFU
  RFU*2, controls: 12310 RFU*2 and 14786 RFU*2
  RFU*2 means, controls: 13548 RFU*2
  RFU, controls: 6155 RFU and 7393 RFU
[5]
  RFU means, BsAcuC (2c): 540 RFU
  RFU*2 means, BsAcuC (2c): 1080 RFU*2
  [AMC] (nM), BsAcuC (2c), means: 527.34 nM
[6]
  RFU means, LcApaH (3): 256.5 RFU
  RFU*2 means, LcApaH (3): 513 RFU*2
  [AMC] (nM), LcApaH (3), means: 250.49 nM
[7]; means of two measurements
  RFU means, RwDmhA (1b): -605.5 RFU
  RFU*2 means, RwDmhA (1b): -1211 RFU*2
[7]; [12]
  [AMC] (nM), RwDmhA (1b), means: -591.31 nM
[7]; [13]
  [AMC] (nM), RwDmhA (1b): -337.89 nM
[7]; [14]
  [AMC] (nM), RwDmhA (1b): -844.73 nM
[8]
  RFU means, LpApaH (3): 459 RFU
  RFU*2, LpApaH (3): 820 RFU*2 and 1016 RFU*2
  RFU*2 means, LpApaH (3): 918 RFU*2
  RFU, LpApaH (3): 410 RFU and 508 RFU
  [AMC] (nM), LpApaH (3): 400.39 nM and 496.09 nM
  [AMC] (nM), LpApaH (3), means: 448.24 nM
[9]
  [AMC] (nM), controls, means: 6615.23 nM
[10]; means of two measurements
  RFU means, RsPrpH (1b): -466 RFU
  RFU*2 means, RsPrpH (1b): -932 RFU*2
[10]; [12]
  [AMC] (nM), RsPrpH (1b), means: -455.08 nM
[10]; [13]
  [AMC] (nM), RsPrpH (1b): -105.47 nM
[10]; [14]
  [AMC] (nM), RsPrpH (1b): -804.69 nM
[11]
  RFU means, KpHdaH (1b): 147 RFU
  RFU*2 means, KpHdaH (1b): 294 RFU*2
  [AMC] (nM), KpHdaH (1b), means: 143.55 nM
[11]; measurement 1 of two
  [AMC] (nM), KpHdaH (1b): 173.83 nM
[11]; measurement 2 of two
  [AMC] (nM), KpHdaH (1b): 113.28 nM
[11]; [15]
  RFU*2, KpHdaH (1b): 356 RFU*2 and 232 RFU*2
  RFU, KpHdaH (1b): 178 RFU and 116 RFU

## QPKKlau (QPKK-{AMC}; not fully specified (residue 4); printed as QPKKlau; also: lauroyl-lysine (which Lys not given here); UniProt P04637 317-320, looked up, fragment)
[1]
  RFU means, VsHdaH (1b): -74 RFU
  RFU*2 means, VsHdaH (1b): -148 RFU*2
  [AMC] (nM), VsHdaH (1b), means: -72.27 nM
[1]; measurement 1 of two
  [AMC] (nM), VsHdaH (1b): -150.39 nM
[1]; measurement 2 of two
  [AMC] (nM), VsHdaH (1b): 5.86 nM
[2]
  RFU means, PsApaH (4): 131 RFU
  RFU*2 means, PsApaH (4): 262 RFU*2
  [AMC] (nM), PsApaH (4), means: 127.93 nM
[2]; measurement 1 of two
  [AMC] (nM), PsApaH (4): 191.41 nM
[2]; measurement 2 of two
  [AMC] (nM), PsApaH (4): 64.45 nM
[3]
  RFU means, VcHdaH (5b): -82 RFU
  RFU*2 means, VcHdaH (5b): -164 RFU*2
  [AMC] (nM), VcHdaH (5b), means: -80.08 nM
[4]
  RFU means, controls: 11610 RFU
  RFU*2, controls: 21150 RFU*2 and 25290 RFU*2
  RFU*2 means, controls: 23220 RFU*2
  RFU, controls: 10575 RFU and 12645 RFU
[5]
  RFU means, BsAcuC (2c): 849.5 RFU
  RFU*2 means, BsAcuC (2c): 1699 RFU*2
  [AMC] (nM), BsAcuC (2c), means: 829.59 nM
  RFU*2, BsAcuC (2c): 2008 RFU*2 and 1390 RFU*2
[6]
  RFU means, LcApaH (3): 6.5 RFU
  RFU*2 means, LcApaH (3): 13 RFU*2
  [AMC] (nM), LcApaH (3), means: 6.35 nM
[7]
  RFU means, RwDmhA (1b): -41 RFU
  RFU*2 means, RwDmhA (1b): -82 RFU*2
  [AMC] (nM), RwDmhA (1b), means: -40.04 nM
[8]
  RFU means, LpApaH (3): 10.5 RFU
  RFU*2 means, LpApaH (3): 21 RFU*2
  [AMC] (nM), LpApaH (3), means: 10.25 nM
[9]
  [AMC] (nM), controls, means: 11337.89 nM
[10]
  RFU means, RsPrpH (1b): -143.5 RFU
  RFU*2 means, RsPrpH (1b): -287 RFU*2
  [AMC] (nM), RsPrpH (1b), means: -140.14 nM
[11]
  RFU means, KpHdaH (1b): -136.5 RFU
  RFU*2 means, KpHdaH (1b): -273 RFU*2
  [AMC] (nM), KpHdaH (1b), means: -133.30 nM
[11]; measurement 1 of two
  [AMC] (nM), KpHdaH (1b): -172.85 nM
[11]; measurement 2 of two
  [AMC] (nM), KpHdaH (1b): -93.75 nM

## QPKKhex (QPKK-{AMC}; not fully specified (residue 4); printed as QPKKhex; also: hexanoyl-lysine (which Lys not given here); UniProt P04637 317-320, looked up, fragment)
[1]
  RFU means, VsHdaH (1b): 66.5 RFU
  RFU*2 means, VsHdaH (1b): 133 RFU*2
  [AMC] (nM), VsHdaH (1b), means: 64.94 nM
[1]; measurement 1 of two
  [AMC] (nM), VsHdaH (1b): 35.16 nM
[1]; measurement 2 of two
  [AMC] (nM), VsHdaH (1b): 94.73 nM
[2]
  RFU means, PsApaH (4): 94.5 RFU
  RFU*2 means, PsApaH (4): 189 RFU*2
  [AMC] (nM), PsApaH (4), means: 92.29 nM
[2]; measurement 1 of two
  [AMC] (nM), PsApaH (4): 125.00 nM
[2]; measurement 2 of two
  [AMC] (nM), PsApaH (4): 59.57 nM
[3]
  RFU means, VcHdaH (5b): 50.5 RFU
  RFU*2 means, VcHdaH (5b): 101 RFU*2
  [AMC] (nM), VcHdaH (5b), means: 49.32 nM
[4]
  RFU means, controls: 3600.5 RFU
  RFU*2, controls: 6176 RFU*2 and 8226 RFU*2
  RFU*2 means, controls: 7201 RFU*2
  RFU, controls: 3088 RFU and 4113 RFU
[5]
  RFU means, BsAcuC (2c): 1487.5 RFU
  RFU*2 means, BsAcuC (2c): 2975 RFU*2
  [AMC] (nM), BsAcuC (2c), means: 1452.64 nM
  RFU*2, BsAcuC (2c): 3440 RFU*2 and 2510 RFU*2
[6]
  RFU means, LcApaH (3): 70 RFU
  RFU*2 means, LcApaH (3): 140 RFU*2
  [AMC] (nM), LcApaH (3), means: 68.36 nM
[7]
  RFU means, RwDmhA (1b): 55 RFU
  RFU*2 means, RwDmhA (1b): 110 RFU*2
  [AMC] (nM), RwDmhA (1b), means: 53.71 nM
[8]
  RFU means, LpApaH (3): 57.5 RFU
  RFU*2 means, LpApaH (3): 115 RFU*2
  [AMC] (nM), LpApaH (3), means: 56.15 nM
[9]
  [AMC] (nM), controls, means: 3516.11 nM
[10]
  RFU means, RsPrpH (1b): -23.5 RFU
  RFU*2 means, RsPrpH (1b): -47 RFU*2
  [AMC] (nM), RsPrpH (1b), means: -22.95 nM
[11]
  RFU means, KpHdaH (1b): 92 RFU
  RFU*2 means, KpHdaH (1b): 184 RFU*2
  [AMC] (nM), KpHdaH (1b), means: 89.84 nM
[11]; measurement 1 of two
  [AMC] (nM), KpHdaH (1b): 166.02 nM
[11]; measurement 2 of two
  [AMC] (nM), KpHdaH (1b): 13.67 nM
